Assay results published in patent publication US20230176070A1 (published 2023).
Substitutions are numbered along the chain they refer to.

B1: NbPDZ P10 (VHH)
VHH: DVQLVESGGGLVQAGGSLRLSCTASGRTFSTYTMAWFRQAPGKEREFVAAITWSGTYYADSVKGRFTISRDNAKNTMYLQMNSLKPEDTAVYICAAVIGSTVDSYSPSDPLEYDYWGQGTQVTVSE
B2: G60 (VHH)
VHH: QMGRNSAEVQLVESGGSLRLSCAASGSGFSSSIIAWYRQAPGKQRELVAAIGGPGSTNYADFVEGRFTISRDNAKNTGYLQMNNLNPEDTAVYYCNEVTRSGREYWGQGTQVTVSS
notes: also called G60(C1)
B3: H2 (VHH)
VHH: QVQLVESGGGLVQAGGSLRLSCTASGRTFTPYTIGWFRQAPGKEREFVASILWSGINTDYADSVKGRFAISRDNAKNAAYLQMSNLKPEDTAVYYCATGGGLGYYRSVSQYDYWGQGTQVTVSE
B4: H3 (VHH)
VHH: QVQLVESGGGLVQAGGSLRLSCVASGRTFEPFVMGWFRQAPGKEREFVATISWSGGSLSYADSVKGRFTVSRDNAKNTVYLQMNSLKPEDTAVYYCAAAPGVGNYRYTFQYDYWGQGTQVTVSE
B5: H4 (VHH)
VHH: HVQLVESGGGLVQTGGSLRLACAASGRAFSTYAMGWFRQAPGKEREFVASINRSGSSTYYADSVKGRFTISRDNGKDTVYLQMNRLIPEDTAVYYCAADSEGVGFRNMLEYDYWGQGTQVTVSS
B6: H7 (VHH)
VHH: DVQLVESGGGSVQAGGSLRLSCAASGGTFSSYAMGWYRQAPGKEREFVSGISWSGSSIDYVDSVKGRFTISRDNAKNTVYLQMNSLKPEDTAVYYCGAADPMGLGYGLGPRPVDRLLSAECDYWGQGTQVTVSS
B7: H11 (VHH)
VHH: QVQLVESGGGLVQVGGSLRLSCAASGRTFSNYVMGWFRQAPGKEREFVAYIHWSGSSTSYADSVKGRFTISRDNTKNTMYLQMNSLKPEDTAVYYCTADQYASTLLRAAGEYWGQGTQVTVSS
B8: H14 (VHH)
VHH: HVQLVESGGGLVQAGGSLRLSCTASGRTFTPYTMGWFRQAPGKEREFVASILWSGNNRDYADSVKDRFAISRDNAKNTAYLQMNSLKPEDTAVYYCAAGDGLGFYRSVNQYDYWGQGTQVTVSS
B9: H16 (VHH)
VHH: QVQLVESGGGLVQTGGSLTLSCAASGRTFSTKSMGWFRQAPGKEREFVADINWNGGITHYADSVEGRFTISRDNANDMVYLQMNSLKPEDTAVYYCAGGRYSTLFSKSEADYDYWGQGTQVTVSS
B10: H18 (VHH)
VHH: EVQLVESGGGLVQAGGSLRLSCTASGPKDTPYTMGWFRQVPGKEREFVASVLWSGINTDYADSVKGRFAISRNNAKNTMYLQMNSLKPEDTAVYYCAAGYGLGFYRSISQYDYWGHGTQVTVSS
B11: H20 (VHH)
VHH: B10 VHH with S107T, I108V
B12: H21 (VHH)
VHH: QVQLVESGGGLVQAGGSLRLSCAASGYTSGNDAMGWFRQAPGKEREFVGAIRWSGVSTYYADSVKGRFTISRDGAKNTLYLQMNSLKPEDTAVYYCAAKFTGSAWYGVQKLESTYWDYWGQGTQVTVSS
B13: H25 (VHH)
VHH: DVQLVESGGGLVQAGGSLRLSCAASGRTISDYGMAWFRQAPGKEREFVGVITSNSVTTYYADSVKGRFTISRDNTKNTVYLQMISLKPEDTAIYYCAARIPVGFYYNARNYDFWGQGTQVTVSS
B14: H28 (VHH)
VHH: DVQLVESGGGLAQAGGSLRLSCAASGRTFSNECMGWFRQAPGKEREFVATIRSTGHISYATSVQGRFTVSRDIAKNTVYLEMNNLKPEDTAVYSCGAGVSDYGCYRTSGYNYWGQGTQVTVSS
notes: also called N28
B15: H30 (VHH)
VHH: HVQLVESGGGLAQAGGSLRLSCAASGGTFSNSCMGWFRQAPGMEREFVAIIRSTGHTTYADSVEGRFTVSRDIAKNTVYLEMNSLKPEDTAVYSCVAGVSDYGCYRTSGIKYWGQGTQVTVSS
B16: H35 (VHH)
VHH: EVQLVESGGGLVQAGGSLRVSCAVSGISIYHSGWYRQAPGKERELVAGISRGGSTNYADSVKGRFTISRDSGENTVYLQMNSLKPEDTAVYYCKIDWDYRGVSQTAWGQGTQVTVSS
B17: P1 (VHH)
VHH: DVQLVESGGGLVQPGGSLRLSCAASGFTLDDYAIGWFRQAPGKEREGVSCISSHGSTYYADSVKGRFTISRDNVKNTLYLQMNSLKPEDTALYYCAASYYSDYEVAVCRSDALDAWGQGTQVTVSE
B18: P2 (VHH)
VHH: DVQLVESGGGLVQAGGSLRLSCAASGHTFSSYTMGWFHQAPGKEREFVAEISGTGGNTGYADSVKGRFTISRDNAKNTVYLQMNSLKPEDTAVYYCAAVIGSPTDSSDYRSSLDYDYWGQGTQVTVSE
B19: P3 (VHH)
VHH: B18 VHH with H27R, S52G
B20: P6 (VHH)
VHH: B18 VHH with D1H, H27R, S31R, I70M, A92G
B21: P4 (VHH)
VHH: HVQLVESGGGLVQAGGSLRLSCAAAGRTSSDYAMGWFRQAPGKEREFVSAINWSGISTYYADSVKGRFTISRDNAKNTVHLQMNSLKPEDTAVYYCAAEKLESLRNWHDPLMYDYWGQGTQVTVSE
B22: P5 (VHH)
VHH: DVQLVESGGGLVQAGDSLRLSCAASGITFRWYTMAWFRQAPGKERDFVATINWSGSDTNYADSVKGRFTISRDNAKNTVTLQMNSLQPEDTAVYYCAGVPGTSLSGETDPRDYDYWGQGTQVTVSE
B23: P15 (VHH)
VHH: QVQLVESGGGLVQAGGSLRLSCVASGRPFSSLDMGWFRQRPGKERDVVATINWTGDSTYYLDSVKGRFTISRDNAKNTVFLQMNSLKPEDTAVYYCAARGGGSSVDSEYDVGEFEYDYWGQGTQVTVSS

What follows are binders tested against T1, PDZ domain of mitochondrial outer membrane protein 25 (mammalian (so in the source), UniProt P57105 6-100, limits assumed) (assay: SPR, PDZ immobilised).
T1 construct: domain: PDZ domain; Wild type PDZ as coated in ELISA and immobilised in SPR; also called wild type PDZ; OMP25 PDZ domain
T1 sequence (looked up): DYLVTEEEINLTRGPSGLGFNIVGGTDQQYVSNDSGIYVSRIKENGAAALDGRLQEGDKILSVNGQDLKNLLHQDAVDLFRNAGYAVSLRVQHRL

Binder	Kd [nM]	koff [s⁻¹]	kon [M⁻¹ s⁻¹]
B1	0.0044	9.03e-06	2.06e+06

What follows are binders tested against T2, glutathione S-transferase (UniProt P08515 1-218 = GST) (assay: SPR, GST immobilised;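 also: nanobody analytes injected as dilution series over three orders of magnitude across antigen on a CM5 chip, kinetics fitted by 1:1 Langmuir model, optionally with mass transfer, duplicate runs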).
T2 construct: Expressed in E. coli, purified on GSH resin; also called GST
T2 sequence (P08515 whole entry): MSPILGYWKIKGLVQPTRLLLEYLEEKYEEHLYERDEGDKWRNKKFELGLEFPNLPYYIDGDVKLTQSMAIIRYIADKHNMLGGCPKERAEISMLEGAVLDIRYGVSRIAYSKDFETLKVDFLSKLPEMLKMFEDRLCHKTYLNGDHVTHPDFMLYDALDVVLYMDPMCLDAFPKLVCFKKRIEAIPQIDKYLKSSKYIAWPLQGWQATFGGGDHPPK
Experimental: (§1) Nb affinity measurement by SPR. Surface plasmon resonance (SPR, Biacore 3000 system, GE Healthcare) was used to measure Nb affinities. Antigen proteins immobilized on the activated CM5 sensor-chip by the following steps. Protein analytes were diluted to 10-30 μg/ml in 10 mM sodium acetate, pH 4.5, and were injected into the SPR system at 5 μl/min for 420 s. The surface of the sensor was then blocked by 1 M ethanolamine-HCl (pH 8.5). For each Nb analyte, a series of dilution (spanning three orders of magnitude) was injected in HBS-EP+ running buffer (GE-Healthcare) containing 2 mM DTT, at a flow rate of 20-30 μl/min for 120-180 s, followed by a dissociation time of 5-20 mins based on dissociation rate. Between each injection, the sensor chip surface was regenerated with the low pH buffer containing 10 mM glycine-HCl (pH 1.5-2.5), or high pH buffer of 20-40 mM NaOH (pH 12-13). The regeneration was performed with a flow rate of 40-50 μl/min for 30 s. The measurements were duplicated and only highly reproducible data was used for analysis. Binding sensorgrams for each Nb were processed and analyzed using BIAevaluation by fitting with 1:1 Langmuir model or 1:1 Langmuir model with mass transfer.

Binder	Kd [nM]	koff [s⁻¹]	kon [M⁻¹ s⁻¹]
B2	1200	0.00586	4870

Each binder was assayed against T3, human serum albumin (human, UniProt P02768 25-609) (assay: SPR, HSA immobilised;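 also: nanobody analytes injected as dilution series across three log units over CM5 chip with amine-coupled antigen, kinetics fitted by 1:1 Langmuir model, optionally with mass transfer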).
T3 construct: In the mutant screen wild type HSA came from medium of transfected HeLa cells; also called HSA; wild type HSA
T3 sequence (P02768 25-609 limits assumed): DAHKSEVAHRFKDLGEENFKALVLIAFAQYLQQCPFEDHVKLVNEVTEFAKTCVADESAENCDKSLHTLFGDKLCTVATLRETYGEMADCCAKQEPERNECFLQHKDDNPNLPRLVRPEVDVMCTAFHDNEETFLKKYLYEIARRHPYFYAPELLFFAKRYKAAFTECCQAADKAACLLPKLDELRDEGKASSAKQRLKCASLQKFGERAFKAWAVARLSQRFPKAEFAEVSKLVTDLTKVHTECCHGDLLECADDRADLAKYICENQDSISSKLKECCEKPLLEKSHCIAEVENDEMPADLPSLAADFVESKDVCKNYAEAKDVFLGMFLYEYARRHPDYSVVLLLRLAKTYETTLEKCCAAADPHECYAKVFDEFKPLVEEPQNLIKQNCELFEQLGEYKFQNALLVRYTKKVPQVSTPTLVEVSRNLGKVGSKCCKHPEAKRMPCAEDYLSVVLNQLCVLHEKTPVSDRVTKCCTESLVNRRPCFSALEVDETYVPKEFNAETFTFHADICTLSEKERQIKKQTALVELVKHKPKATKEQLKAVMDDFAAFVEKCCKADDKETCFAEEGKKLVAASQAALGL
Experimental: as §1

Binder	Kd [nM]	koff [s⁻¹]	kon [M⁻¹ s⁻¹]
B3	0.17	3.99e-05	234000
B4	0.454	0.000504	1.11e+06
B5	0.266	0.000264	992000
B6	1.09	9.79e-05	93500
B7	0.061	1.55e-05	255000
B8	0.0223	5.57e-06	250000
B9	0.0862	0.000116	1.34e+06
B10	0.502	8.71e-05	171000
B11	0.247	3.8e-05	154000
B12	0.266	0.000182	683000
B13	0.858	0.000802	936000
B14	1.66	0.00868	5.24e+06
B15	0.164	0.000168	1.03e+06

These binders were tested against T2, glutathione S-transferase (assay: indirect ELISA, GST coated;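 also: nanobody dilution series starting at 10 µM binding plate-bound antigen, HRP anti-His or anti-T7 tag detection, TMB absorbance at 450 nm, logIC50 from four-parameter logistic fit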).
Experimental: (§2) Indirect ELISA was carried out to evaluate the camelid immune response of an antigen and to quantify the relative affinities of antigen-specific Nbs. An antigen was coated onto a 96-well ELISA plate (R&D system) at an amount of approximately 1-10 ng per well in a coating buffer (15 mM sodium carbonate, 35 mM sodium bicarbonate, pH 9.6) overnight at 4° C. The well surface was then blocked with a blocking buffer (DPBS, 0.05% Tween 20, 5% milk) at room temperature for 2 hours. To test an immune response, the immunized serum was serially 5-fold diluted in the blocking buffer. The diluted sera were incubated with the antigen coated wells at room temperature for 2 hours. HRP-conjugated secondary antibodies against llama Fc (Bethyl) were diluted 1:10,000 in the blocking buffer and incubated with each well for 1 hour at room temperature. […] Nbs of both specific binders for test and scramble negative controls were serially 10-fold diluted from 10 μM to 1 μM in the blocking buffer. HRP-conjugated secondary antibodies against His-tag (Genscript) or T7-tag (Thermo) were diluted 1:5,000 or 1:10,000 in the blocking buffer and incubated for 1 hour at room temperature. Three washes with 1x PBST (DPBS, 0.05% Tween 20) were carried out to remove nonspecific absorbance between incubations. After the final wash, the samples were further incubated under dark with freshly prepared w3,3′,5,5′-Tetramethylbenzidine (TMB) substrate for 10 mins at room temperature to develop the signals. After the STOP solution (R&D system), the plates were read at multiple wavelengths (450 nm and 550 nm) on a plate reader (Multiskan GO, Thermo Fisher). A false positive Nb binder was defined if any of the following two criteria was met: i) the ELISA signal can only be detected at a concentration of 10 μM and was under detected at 1 μM concentration. ii) At 1 μM concentration, a pronounced signal decrease (by more than 10-fold) was detected compared to the signal at 10 μM, while there were no signals can be detected at lower concentrations. The raw data was processed by Prism 7 (GraphPad) to fit into a 4PL curve and to calculate logIC50.

Binder	ELISA affinity (LogIC50 (oD450nm))
B2	2.49

These binders were tested against T3, human serum albumin (assay: indirect ELISA, HSA coated).
Experimental: as §2

Binder	ELISA affinity (LogIC50 (oD450nm))	binding result
B3	5.88	
B4	7	
B5	5.4	
B6	5.62	
B7	6.27	
B8	5.96	
B9	5.99	
B10	5.65	
B11	5.76	
B12	5.63	
B13	5.34	
B14	5.12	
B15	5.89	
B16		no binding (tested: Nb titrated from 10 µM)

These binders were tested against T1, PDZ domain of mitochondrial outer … (assay: indirect ELISA, wild type PDZ coated).
Experimental: Indirect ELISA was carried out to evaluate the camelid immune response of an antigen and to quantify the relative affinities of antigen-specific Nbs. An antigen was coated onto a 96-well ELISA plate (R&D system) at an amount of approximately 1-10 ng per well in a coating buffer (15 mM sodium carbonate, 35 mM sodium bicarbonate, pH 9.6) overnight at 4° C. The well surface was then blocked with a blocking buffer (DPBS, 0.05% Tween 20, 5% milk) at room temperature for 2 hours. To test an immune response, the immunized serum was serially 5-fold diluted in the blocking buffer. The diluted sera were incubated with the antigen coated wells at room temperature for 2 hours. […] Three washes with 1x PBST (DPBS, 0.05% Tween 20) were carried out to remove nonspecific absorbance between incubations. […] After the STOP solution (R&D system), the plates were read at multiple wavelengths (450 nm and 550 nm) on a plate reader (Multiskan GO, Thermo Fisher). A false positive Nb binder was defined if any of the following two criteria was met: i) the ELISA signal can only be detected at a concentration of 10 μM and was under detected at 1 μM concentration. ii) At 1 μM concentration, a pronounced signal decrease (by more than 10-fold) was detected compared to the signal at 10 μM, while there were no signals can be detected at lower concentrations. […]

Binder	WT ELISA affinity (LogIC50 (oD450nm))
B1	5.21

What follows are binders tested against T4, MBP-PDZ fusion protein (mammalian (so in the source), UniProt P57105 6-100, limits assumed) (assay: beads-binding assay, MBP-PDZ-coupled resin).
T4 construct: domain: PDZ domain; also called MBP fusion PDZ
T4 sequence (looked up): T1 sequence (looked up)
Experimental: After Nb induction and cell lysis, the cell lysates were run on SDS-PAGE to estimate Nb expression levels. Recombinant Nbs in the cell lysis were diluted in 1x DPBS (pH 7.4) to a final concentration of ˜5 μM (for GST Nbs) and ˜50 nM (for PDZ Nbs). To test the specific interactions of Nbs with antigens, different antigens were coupled to the CNBr resin. Inactivated or MBP-conjugated CNBr resin was used for control. Antigen coupled resins or control resins were incubated with Nb lysates at 4° C. for 30 mins. The resins were then washed three times with a washing buffer (1x DPBS with 150 mM NaCl and 0.05% Tween 20) to remove nonspecific bindings. Specific antigen bound Nbs were then eluted from the resins by the hot LDS buffer containing 20 mM DTT and ran on SDS-PAGE. The intensities of Nbs on the gel were compared between antigen specific signals and control signals to derive the false positive binding.

Binder	binding result
B17	binds
B18	binds
B19	binds
B20	binds
B21	binds
B22	binds
B23	binds

What follows are binders tested against T2, glutathione S-transferase (assay: SPR, GST immobilised (legend of FIG. 3H; differs from Table 1)).
Experimental: as §1

Binder	Kd [nM]
B2	1300

These binders were tested against T3, human serum albumin (assay: SPR, HSA immobilised (legend of FIG. 3I; differs from Table 2)).
Experimental: as §1

Binder	koff [s⁻¹]
B8	5.75e-06
